Holding throughout (test): MST
For series [1], the system named is SUV420H1(1-390) Y349A (human). The note with it: 40 uM SAM; text says NCP H2A, legend H4K20M; histone H4 K20M; MST: 20 mM HEPES pH 7.5, 50 mM NaCl (listed twice), 50 mM KCl, 1 mg/mL BSA, 0.05% Tween-20, 40 uM SAM, 2 mM DTT, room temperature; EMSA: 25 mM HEPES pH 7.5 …. In general terms: A gel shift assay detects complexes by their altered migration in electrophoresis.

Series [2] relates to SUV420H1(1-390) R357H (human). The conditions noted are these: 40 uM SAM; text says NCP H2A, legend H4K20M; histone H4 K20M; MST: 20 mM HEPES pH 7.5, 50 mM NaCl (listed twice), 50 mM KCl, 1 mg/mL BSA, 0.05% Tween-20, 40 uM SAM, 2 mM DTT, room temperature; EMSA: 25 mM HEPES pH 7.5 ….
Series [3] deals with SUV420H1(1-390) R286A (human). The conditions noted are these: histone H4 K20M; MST: 20 mM HEPES pH 7.5, 50 mM NaCl (listed twice), 50 mM KCl, 1 mg/mL BSA, 0.05% Tween-20, 40 uM SAM, 2 mM DTT, room temperature; EMSA: 25 mM HEPES pH 7.5 ….
The test system of series [4] is SUV420H1(1-390) R352A (human). The note with it: 40 uM SAM; text says NCP H2A, legend H4K20M; histone H4 K20M; MST: 20 mM HEPES pH 7.5, 50 mM NaCl (listed twice), 50 mM KCl, 1 mg/mL BSA, 0.05% Tween-20, 40 uM SAM, 2 mM DTT, room temperature; EMSA: 25 mM HEPES pH 7.5 ….
The test system of series [5] is SUV420H1(1-390) S255F (human). The conditions noted are these: histone H4 K20M; MST: 20 mM HEPES pH 7.5, 50 mM NaCl (listed twice), 50 mM KCl, 1 mg/mL BSA, 0.05% Tween-20, 40 uM SAM, 2 mM DTT, room temperature; EMSA: 25 mM HEPES pH 7.5 ….
The subject of series [6] is SUV420H1(1-390) S283L (human). The conditions noted are these: histone H4 K20M; MST: 20 mM HEPES pH 7.5, 50 mM NaCl (listed twice), 50 mM KCl, 1 mg/mL BSA, 0.05% Tween-20, 40 uM SAM, 2 mM DTT, room temperature; EMSA: 25 mM HEPES pH 7.5 ….
In series [7] the test system is SUV420H1(1-390) R257A (human). The note with it: histone H4 K20M; MST: 20 mM HEPES pH 7.5, 50 mM NaCl (listed twice), 50 mM KCl, 1 mg/mL BSA, 0.05% Tween-20, 40 uM SAM, 2 mM DTT, room temperature; EMSA: 25 mM HEPES pH 7.5 ….
In series [8] the test system is SUV420H1(1-390) R220A (human). The conditions noted are these: 40 uM SAM; text says NCP H2A, legend H4K20M; histone H4 K20M; MST: 20 mM HEPES pH 7.5, 50 mM NaCl (listed twice), 50 mM KCl, 1 mg/mL BSA, 0.05% Tween-20, 40 uM SAM, 2 mM DTT, room temperature; EMSA: 25 mM HEPES pH 7.5 ….
In series [9] the test system is SUV420H1(1-390) R357A (human). The conditions noted are these: 40 uM SAM; text says NCP H2A, legend H4K20M; histone H4 K20M; MST: 20 mM HEPES pH 7.5, 50 mM NaCl (listed twice), 50 mM KCl, 1 mg/mL BSA, 0.05% Tween-20, 40 uM SAM, 2 mM DTT, room temperature; EMSA: 25 mM HEPES pH 7.5 ….
Series [10] relates to SUV420H1(1-390) K258A (human). The conditions noted are these: histone H4 K20M; MST: 20 mM HEPES pH 7.5, 50 mM NaCl (listed twice), 50 mM KCl, 1 mg/mL BSA, 0.05% Tween-20, 40 uM SAM, 2 mM DTT, room temperature; EMSA: 25 mM HEPES pH 7.5 ….

As to NCP H2A, H4K20M, the Kd (in general, a measure of binding affinity in units of concentration) in series [1] was determined as 108 nM; in series [2], 83 nM; in series [3], 323 nM; in series [4] it was 220 nM; in series [5], 182 nM; in [6] it was 85 nM. For the same substance, the Kd in series [7] was 144 nM; in [8], 93 nM; in series [9], 213 nM; in series [10], 112 nM.

The values above are taken from article PMC10697951.
